Assay in all cases: SPR
The target in assay [1] is T1, GBP1 mutant R227A/K228A (human, UniProt P32455 1-592, R227A | K228A).
T1 sequence (looked up): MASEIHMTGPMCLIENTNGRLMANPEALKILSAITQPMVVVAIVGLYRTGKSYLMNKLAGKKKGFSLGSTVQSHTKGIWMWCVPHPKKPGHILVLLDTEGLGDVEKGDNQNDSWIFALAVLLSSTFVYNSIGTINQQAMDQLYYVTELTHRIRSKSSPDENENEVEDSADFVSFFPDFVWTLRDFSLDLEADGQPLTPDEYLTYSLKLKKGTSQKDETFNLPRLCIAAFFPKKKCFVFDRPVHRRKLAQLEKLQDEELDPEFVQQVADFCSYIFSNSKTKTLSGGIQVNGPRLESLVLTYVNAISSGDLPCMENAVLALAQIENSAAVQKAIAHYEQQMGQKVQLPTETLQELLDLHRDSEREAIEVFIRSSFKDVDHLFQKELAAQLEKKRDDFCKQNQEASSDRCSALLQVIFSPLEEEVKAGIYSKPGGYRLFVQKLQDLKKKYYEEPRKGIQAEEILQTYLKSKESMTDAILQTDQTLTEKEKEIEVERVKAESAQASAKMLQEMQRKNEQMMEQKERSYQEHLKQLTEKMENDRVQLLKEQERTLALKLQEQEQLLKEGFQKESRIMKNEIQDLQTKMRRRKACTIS

For assay [2], the target named is T2, GBP1 mutant D184A (human, UniProt P32455 1-592, D184A).
T2 sequence (looked up): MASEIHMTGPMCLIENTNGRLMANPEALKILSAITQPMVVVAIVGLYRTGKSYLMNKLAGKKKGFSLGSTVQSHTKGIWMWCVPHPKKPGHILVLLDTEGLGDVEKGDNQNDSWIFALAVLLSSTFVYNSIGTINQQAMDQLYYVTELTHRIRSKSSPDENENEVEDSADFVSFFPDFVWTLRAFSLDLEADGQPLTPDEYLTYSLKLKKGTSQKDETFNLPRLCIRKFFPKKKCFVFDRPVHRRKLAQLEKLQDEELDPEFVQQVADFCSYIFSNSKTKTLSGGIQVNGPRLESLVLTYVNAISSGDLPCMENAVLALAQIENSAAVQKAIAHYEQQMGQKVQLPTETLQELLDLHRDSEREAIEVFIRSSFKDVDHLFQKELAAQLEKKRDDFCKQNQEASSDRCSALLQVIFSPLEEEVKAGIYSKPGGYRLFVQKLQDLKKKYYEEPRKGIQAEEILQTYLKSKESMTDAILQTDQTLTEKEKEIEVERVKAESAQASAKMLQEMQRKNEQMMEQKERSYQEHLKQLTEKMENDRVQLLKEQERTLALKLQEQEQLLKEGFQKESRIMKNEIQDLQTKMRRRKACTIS

For assay [3], the target named is T3, GBP1 mutant R48A (human, UniProt P32455 1-592, R48A).
T3 sequence (looked up): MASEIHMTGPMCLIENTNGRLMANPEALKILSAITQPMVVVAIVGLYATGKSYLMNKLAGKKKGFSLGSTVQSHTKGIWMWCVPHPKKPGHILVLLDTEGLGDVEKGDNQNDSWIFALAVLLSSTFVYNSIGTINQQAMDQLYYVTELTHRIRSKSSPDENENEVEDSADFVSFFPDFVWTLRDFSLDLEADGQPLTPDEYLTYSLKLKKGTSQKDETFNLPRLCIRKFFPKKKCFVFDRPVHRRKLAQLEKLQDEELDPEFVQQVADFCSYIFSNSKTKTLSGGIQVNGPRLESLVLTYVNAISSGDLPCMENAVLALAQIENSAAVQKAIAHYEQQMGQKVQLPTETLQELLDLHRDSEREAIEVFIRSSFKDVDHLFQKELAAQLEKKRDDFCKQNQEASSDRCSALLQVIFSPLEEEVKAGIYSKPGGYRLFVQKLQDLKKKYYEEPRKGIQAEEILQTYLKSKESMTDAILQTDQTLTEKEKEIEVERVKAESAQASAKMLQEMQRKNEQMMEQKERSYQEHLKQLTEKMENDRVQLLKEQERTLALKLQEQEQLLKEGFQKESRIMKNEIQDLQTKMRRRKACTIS

Assay [4] addresses T4, GBP1 mutant D103N (human, UniProt P32455 1-592, D103N).
T4 sequence (looked up): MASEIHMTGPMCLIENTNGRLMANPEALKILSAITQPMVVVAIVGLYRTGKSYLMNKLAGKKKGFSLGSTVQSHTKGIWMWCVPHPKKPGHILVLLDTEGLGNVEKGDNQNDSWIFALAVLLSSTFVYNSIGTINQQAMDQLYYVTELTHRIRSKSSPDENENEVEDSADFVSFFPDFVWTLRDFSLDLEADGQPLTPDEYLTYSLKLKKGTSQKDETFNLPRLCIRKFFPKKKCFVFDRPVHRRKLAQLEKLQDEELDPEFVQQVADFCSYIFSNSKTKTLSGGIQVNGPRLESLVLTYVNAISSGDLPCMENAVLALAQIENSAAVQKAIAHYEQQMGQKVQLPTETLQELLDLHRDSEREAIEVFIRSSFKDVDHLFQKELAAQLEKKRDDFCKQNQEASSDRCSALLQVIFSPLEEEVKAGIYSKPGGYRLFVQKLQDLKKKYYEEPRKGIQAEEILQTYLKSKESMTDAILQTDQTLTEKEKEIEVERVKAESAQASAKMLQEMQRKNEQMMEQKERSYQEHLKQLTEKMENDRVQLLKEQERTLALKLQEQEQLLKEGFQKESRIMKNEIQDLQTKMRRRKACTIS

B1: PIM1 (recombinant) (enzyme)
chain: not shown
For B1, the Kd (in general, the concentration at which binding is half-saturated) came out at 61 ± 4 nM in assay [1], 77 ± 3 nM in assay [2], 21 ± 0.1 nM in assay [3] and 15 ± 0.1 nM in assay [4].

(Values after paper PMC4191604 (Journal of Medicinal Chemistry, 2014).)
